The Km is the substrate concentration at which the rate is half of its maximum. One may read the kcat as the number of substrate molecules converted per active site and unit of time at saturation.

For data set [1], the system named is T1, CCCc1ccc(O)c(OC)c1.
T1 construct: full length, 526 residues, C-terminal His6 tag (pBAD-EUGO-His6x), E. coli NEB10beta; covalent FAD; homodimer; mutants for crystals from His-SUMO fusion, tag cleaved
In words: purified protein. Type of data set: biochemical, Rhodococcus jostii. The settings on record: 50 mM KPi pH 7.5, 10% v/v DMSO, 10 µM to 1 mM substrate, O2 co-substrate.

Data set [2] relates to T2, COc1cc(CO)ccc1O.
T2 construct: full length, 526 residues, C-terminal His6 tag (pBAD-EUGO-His6x), E. coli NEB10beta; covalent FAD; homodimer; mutants for crystals from His-SUMO fusion, tag cleaved
In words: purified protein. It counts as biochemical, Rhodococcus jostii. The settings on record: 50 mM KPi pH 7.5, O2 co-substrate, 0.05 µM enzyme.

Consider “EUGO (eugenol oxidase) (Rhodococcus jostii RHA1; A423M/D151E/H434Y/I445D/Q425S/S394V/S518P/S81H)”, for which, in data set [1] (100 nM enzyme), the Km is listed as 7.4 ± 0.4 µM and the catalytic constant (kcat) is 0.43 ± 0.007 s⁻¹. Further, in data set [2], the Km is reported as 94.9 ± 7.8 µM and the kcat was determined as 2.8 ± 0.07 s⁻¹.

On to “EUGO (eugenol oxidase) (Rhodococcus jostii RHA1; A423M/D151E/H434Y/I445D/S394V/S518P/S81H)”, for which the Km in data set [1] (1.0 µM enzyme) is on record as 3.0 ± 0.2 µM; in data set [2], 2.9 ± 0.2 µM. Besides, the values for the kcat in data set [1] (1.0 µM enzyme) and in data set [2] were 0.08 ± 0.002 s⁻¹ and 0.15 ± 0.002 s⁻¹, respectively.

On to “EUGO (eugenol oxidase) (Rhodococcus jostii RHA1; A423M/H434Y/I445D/S394V/S518P/S81H)”, for which, in data set [1] (1.0 µM enzyme), the Km is 3.4 ± 0.4 µM and the kcat is 0.028 ± 0.0003 s⁻¹. For the same substance, in data set [2], the Km was 7.1 ± 0.6 µM and the turnover number (kcat) was found to be 0.075 ± 0.001 s⁻¹.

As for “EUGO (eugenol oxidase) (Rhodococcus jostii RHA1; A423M/H434Y/I445D/S518P/S81H)”, in data set [2], the Km is 177.6 ± 15.8 µM and the kcat stood at 4.8 ± 0.2 s⁻¹.

The record behind these values is paper PMC9684555, “Structure- and computational-aided engineering of an oxidase to produce isoeugenol from a lignin-derived compound” (Nature Communications, 2022).
